Common to all, as to assay type: biochemical
Parameters in all cases: key: +: active; -: inactive
Common to all, as to conditions: Table 7

A short description of assay [1]: Comparison of substrate profiles of L-aminoacylases, substrate L-N-acetyl-methionine. On the procedure: (§1) The substrate profiles of L-aminoacylase S1 and L-aminoacylase S2 of the present invention and conventional L-aminoacylases were measured.
(§2) L-aminoacylase S1 and L-aminoacylase S2 of the present invention was compared with commercially available L-aminoacylases in their activity by using N-acetyl derivatives of D- or L-methionine and L-threo-3-(3,4-dibenzyloxyphenyl) serine as substrates.

Assay [2] can be described thus: Comparison of substrate profiles of L-aminoacylases, substrate D-N-acetyl-methionine. On the procedure:
as §1, §2

The nature of assay [3]: Comparison of substrate profiles of L-aminoacylases, substrate L-threo-N-acetyl-3-(3,4-dibenzyloxyphenyl)serine. On the procedure:
as §1, §2

B1: Acylase I: commercially available aminoacylase (hog kidney), manufactured by Miles Laboratory (protein, UniProt P37111 2-407, looked up)
Aminoacylase-1: ASKGREGEHPSVTLFRQYLRIRTVQPEPDYGAAVAFLEERARQLGLGCQKVEVVPGHVVTVLTWPGTNPTLSSILLNSHTDVVPVFKEHWSHDPFEGFKDADGYIYGRGAQDMKCVSIQYLEAVRRLKVEGHHFPRTIHMTFVPDEEVGGHQGMELFVKRPEFQALRAGFALDEGLASPTDAFTVFYSERSPWWLRVTSTGKPGHGSRFIEDTAAEKLHKVINSILAFREKEKQRLQSNQLKPGAVTSVNLTMLEGGVAYNVVPATMSACFDFRVAPDVDLKAFEEQLQSWCQAAGEGVTFEFVQKWMETQVTSTDDSDPWWAAFSGVFKDMKLALELEICPASTDARYIRAAGVPALGFSPMNHTPVLLHDHDERLHEAVFLRGVDIYTQLLSALASVPALPSES
Turning to B1, the “Activity on substrate L-N-acetyl-methionine” value in assay [1] was “+”. In assay [2], the “Activity on substrate D-N-acetyl-methionine” value is given as “-”. The “Activity on substrate L-threo-N-acetyl-3-(3,4-dibenzyloxyphenyl)serine” value in assay [3] is “-”.

Source of the values: patent publication US4745067A, “L-aminoacylases” (Microbial Chemistry Research Foundation, priority 1985, dated 1988).
